This assay concerns the target Rum pol (RumA′2B), His-tagged on RumB (integrative conjugative element R391).

Turning to “S. aureus RecA (from UniProt A5ISG9 1-347) (natural protein)”, the primer extension (% PE) by Rum Mut-Sa transactivated with Sa RecA* amounted to 4 % PE.

The values are drawn from publication PMC9262582.
